Assay results as given in US20050032064, “Method and device for identifying substances capable of modulating adipocyte differentiation” (published 2005).

How the values were obtained:
RXR ALPHA = target: T1, RXR ALPHA (Mus musculus, UniProt P28700 P28700:1-467); assay: EMSA; RXR alpha alone; conditions: tags: pSG5-mRXR-alpha, rabbit reticulocyte lysate; label: end-labeled
T1 sequence: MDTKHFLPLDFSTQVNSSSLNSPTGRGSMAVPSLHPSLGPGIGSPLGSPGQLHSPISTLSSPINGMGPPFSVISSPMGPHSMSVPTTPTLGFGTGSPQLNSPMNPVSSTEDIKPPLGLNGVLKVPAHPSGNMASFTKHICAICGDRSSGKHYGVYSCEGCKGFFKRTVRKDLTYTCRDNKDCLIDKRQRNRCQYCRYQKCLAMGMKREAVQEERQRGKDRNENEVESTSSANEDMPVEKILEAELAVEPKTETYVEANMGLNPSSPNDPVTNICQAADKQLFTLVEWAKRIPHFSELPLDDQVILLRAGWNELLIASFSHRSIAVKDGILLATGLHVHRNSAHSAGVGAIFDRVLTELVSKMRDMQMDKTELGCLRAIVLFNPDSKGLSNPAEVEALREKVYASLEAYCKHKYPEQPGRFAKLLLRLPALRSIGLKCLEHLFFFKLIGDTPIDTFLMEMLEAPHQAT
Description: (§1) The electrophoretic gel shift studies were carried out by using the indicated end-labeled oligonucleotides, in the presence of the murine PPAR GAMMA receptor, murine RXR ALPHA receptor, human REV-ERB ALPHA receptor produced by reticulocyte lysate, or non-programmed lysates (lysate). Binding competition experiments were performed by adding a 0, 10 or 100-fold excess of unlabeled Rev-DR2 oligonucleotide.
(§2) The pSG5-mPPAR-gamma, pSG5-mRXR-alpha and pSG5-hRev-erb alpha plasmids were transcribed in vitro with T7 polymerase and translated with the rabbit reticulocyte lysate system (Promega, Madison, Wis., USA). Gel shift experiments with REV-ERB ALPHA, PPAR GAMMA and/or RXR ALPHA proteins were carried out as previously described (Gervois, P. et al., Molecular Endocrinology 1999, 13(3): 400-409; Vu-Dac, N. et al., J. Biol. Chem. 1994, 269(49): 31012-31018). For the competition experiments, increasing quantities of the indicated unlabeled probe were added immediately before adding the labeled oligonucleotide. The complexes were resolved in 5% polyacrylamide gels using […] buffer (90 mM borate, 2.5 mM EDTA, pH 8.3) at room temperature. Gels were dried and exposed overnight at −70° C. on Rayon-X film (XOMAT-AR, Eastman Kodak, Rochester, N.Y., USA).
(§3) Lastly, binding of the PPAR GAMMA receptor to the Rev-DR2 site was studied. […]

REV-ERB ALPHA (NR1D1) = target: T2, REV-ERB ALPHA (NR1D1) (Homo sapiens, UniProt P20393 SEQ:1-614); assay: EMSA; binds as monomer and homodimer; conditions: tags: expressed from pSG5-hRev-erb alpha, rabbit reticulocyte lysate; label: end-labeled
T2 sequence: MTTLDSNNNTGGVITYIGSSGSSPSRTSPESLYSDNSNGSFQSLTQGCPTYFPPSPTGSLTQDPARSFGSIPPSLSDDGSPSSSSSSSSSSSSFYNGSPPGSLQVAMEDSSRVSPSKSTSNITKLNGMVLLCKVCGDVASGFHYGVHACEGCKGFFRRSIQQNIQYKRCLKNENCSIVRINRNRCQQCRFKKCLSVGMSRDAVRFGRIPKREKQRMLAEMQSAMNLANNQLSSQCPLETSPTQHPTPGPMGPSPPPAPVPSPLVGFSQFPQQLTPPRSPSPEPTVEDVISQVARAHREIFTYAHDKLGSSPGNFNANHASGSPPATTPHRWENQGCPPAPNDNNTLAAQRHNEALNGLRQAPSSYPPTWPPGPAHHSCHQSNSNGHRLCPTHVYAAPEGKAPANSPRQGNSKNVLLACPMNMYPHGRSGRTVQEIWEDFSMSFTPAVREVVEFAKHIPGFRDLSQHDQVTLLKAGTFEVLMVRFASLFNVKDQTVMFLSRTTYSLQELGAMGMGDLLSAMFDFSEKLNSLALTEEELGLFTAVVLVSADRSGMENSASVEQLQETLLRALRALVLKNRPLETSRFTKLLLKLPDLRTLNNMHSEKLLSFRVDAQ
Description: as §1, §2, §3

PPAR GAMMA = PPAR GAMMA (Mus musculus, UniProt P37238 P37238:1-505); assay: EMSA; PPAR gamma alone; conditions: tags: pSG5-mPPAR-gamma, rabbit reticulocyte lysate; label: end-labeled
Description: as §1, §2, §3

[1] = target: PPAR GAMMA / RXR ALPHA heterodimer (Mus musculus, UniProt P37238;P28700 P37238:1-505,P28700:1-467); assay: EMSA; competed by excess (10 or 100-fold tested) unlabeled Rev-DR2; conditions: tags: pSG5-mPPAR-gamma and pSG5-mRXR-alpha, rabbit reticulocyte lysate; label: end-labeled
Description: Binding competition experiments were performed by adding a 0, 10 or 100-fold excess of unlabeled Rev-DR2 oligonucleotide.
as §2
Lastly, binding of the PPAR GAMMA receptor to the Rev-DR2 site was studied. A test to measure electrophoretic mobility (gel shift or electrophoretic mobility shift assay) was carried out using PPAR GAMMA and RXR ALPHA proteins synthesized in vitro. […]

B1: Rev-DR2 (dsDNA)
DNA 1: AAAAGTGTGTCACTGGGGCA
DNA 2: TGCCCCAGTGACACACTTTT
Which results are given for B1?
binding result (RXR ALPHA): no binding; binding result (REV-ERB ALPHA (NR1D1)): binds; binding result (PPAR GAMMA): no binding; binding result [1]: binds
